B1: anti-CD3 FlicAb ID 304703 (SEQ ID NO:39) (antibody, V domains shown)
VH: QLQLQESGPGLVKPSQTLSLTCTVSGGSISSGGHYWSWIRQHPGKGLEWIGYIHYSGSTYYNPSLKSRVIISVDTSKNQFSLKLRSVTAADTAVYYCARWRHDIFAAYPYYYYGMDVWGQGTLVTVSS
VL: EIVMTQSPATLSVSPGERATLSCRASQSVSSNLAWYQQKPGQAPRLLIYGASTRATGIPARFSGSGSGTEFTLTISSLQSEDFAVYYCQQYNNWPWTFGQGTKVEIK
notes: fully human IgG1 with the fixed kappa light chain
B2: anti-CD3 FlicAb ID 313306 (SEQ ID NO:1) (antibody, V domains shown)
VH: QLQLQESGPGLVKPSQTLSLTCSVSGGSIRSGGHYWSWIRQHPGKGLEWIGYIHHSGSTYYNPSLKSRVIISVDTSKNQFSLKLRSVTAADTAIYYCARWRHDIFTTYPYYYYGMDVWGQGTLVTVSS
VL: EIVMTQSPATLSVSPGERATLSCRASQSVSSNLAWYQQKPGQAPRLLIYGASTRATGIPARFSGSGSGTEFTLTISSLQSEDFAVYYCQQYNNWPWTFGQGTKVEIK
notes: fully human IgG1 with the fixed kappa light chain; also called αCD3_F1F
B3: anti-CD3 FlicAb ID 313329 (SEQ ID NO:6) (antibody, V domains shown)
VH: QLQLQESGPGLVKPSETLSLTCTVSGGSISSGGHYWSWIRQHPGKGLEWIGYIHHSGSTNYNPSLKSRITISVDTSKNQFSLKVSSVTAADTAVYYCARWRHDIFAAYPYYYYGMDVWGQGTLVTVSS
VL: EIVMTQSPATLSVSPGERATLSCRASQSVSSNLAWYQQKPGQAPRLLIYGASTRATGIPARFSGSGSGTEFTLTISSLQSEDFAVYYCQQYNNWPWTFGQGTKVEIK
notes: as for B1

Molecular target: T1, cynomolgus CD3 (cynomolgus, UniProt Q95LI5 22-198; Q95LI8 22-171)
T1 construct: Rats were immunised with cynomolgus CD3-epsilon/delta constructs; also called CD3 protein of Cynomolgus macaque; non-human primate CD3 proteins
Test: flow cytometry, parental monospecific anti-CD3 on cyno T-cells

T1 sequence (Q95LI5 22-198, chain 1 of 2): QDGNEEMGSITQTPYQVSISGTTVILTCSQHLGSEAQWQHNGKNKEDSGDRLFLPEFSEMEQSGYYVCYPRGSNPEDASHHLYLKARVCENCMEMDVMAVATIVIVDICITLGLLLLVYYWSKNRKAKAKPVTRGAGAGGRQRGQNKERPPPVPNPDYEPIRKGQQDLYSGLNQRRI
T1 sequence (Q95LI8 22-171, chain 2 of 2): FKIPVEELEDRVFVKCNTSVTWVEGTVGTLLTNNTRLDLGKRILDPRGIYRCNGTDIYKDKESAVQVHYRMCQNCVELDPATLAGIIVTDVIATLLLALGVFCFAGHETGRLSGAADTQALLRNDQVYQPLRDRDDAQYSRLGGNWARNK

Binder | Cyno T-cell bind (MFI)
B1 | 26.2 MFI
B2 | 71.7 MFI
B3 | 17.4 MFI

From US20190263904A1 (TENEOBIO, published 2019)
